Measurements as given in patent US20220396632A1 (VERSEAU THERAPEUTICS, published 2022).
Changes are numbered by the printed parent chain.

T1: Sulfotyr fibrinogen γ peptide (not fully specified; Y8 and Y12 sulfated (SO3); C-terminal biotin)
T1 construct: also called Fibrinogen gamma peptide; human sulfotyrosinylated fibrinogen peptide
T1 peptide: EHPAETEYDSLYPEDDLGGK

T2: Scrambled Y42,52,63(SO3) PSGL-1(42-62) biotin peptide (sulfotyrosine at peptide positions 1, 11 and 22; C-terminal Lys-biotin)
T2 peptide: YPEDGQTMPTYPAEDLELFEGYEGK

T3: Biotin Y46,48,51(SO3) PSGL-1(42-62) peptide (human, sulfotyrosine at Y46, Y48 and Y51; C-terminal Lys-biotin)
T3 construct: also called fully sulfated N-terminal PSGL-1 peptide
T3 peptide: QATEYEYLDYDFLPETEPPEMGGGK

T4: Biotin PSGL-1(42-62) peptide, unmodified (human, C-terminal Lys-biotin)
T4 construct: Residues 42-62 followed by GGGK-biotin; also called WT; wild-type
T4 peptide: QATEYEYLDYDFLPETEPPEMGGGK

B1: 03F03 (antibody, V domains shown)
VH: QVQLQESGPGLVKPSETLSLTCTVSGGSISSSSYYWGWIRQPPGKGLEWIGSIYYSGSTYYNPSLKSRVTISVDTSKNQFSLKLSSVTAADTAVYYCARSRPRPWAFDIWGQGTMVTVSS
VL: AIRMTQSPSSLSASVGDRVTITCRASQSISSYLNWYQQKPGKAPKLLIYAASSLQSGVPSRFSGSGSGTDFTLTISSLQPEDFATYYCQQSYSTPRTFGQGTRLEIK
B2: 09D04 (antibody, IgG4, V domains shown)
VH: QVQLQQSGGGLVQPGGSLTLSCVGSGFDFRSYAMSWVRQAPGKGLEWVSGINNSGSKTYYADFVKGRFSVSRDNSKNIVWLRMRSLRAEDTAVYYCARRTFGPPHAWGQGTMVTVSS
VL: DVVMTQSPLSLPVTPGEPASISCRSSQSLLHSNGYTYLEWYLHKPGQSPQLLIYLGSNRASGVPDRFSGSGSGTDFTLKISRVEAEDVGVYYCMHSLHIPFTFGPGTKVDIK
B3: 11D10 (antibody, IgG4, V domains shown)
VH: EVKLLESGGGLVQPGGSLRLSCAVSGFTFSTSAMIWVRQAPGKGLEWVSFISGSTSNTYYADSVKGRFTISRDNSKNTLYLQMNGLTAEDTAVYYCARGTAAATWGQGALVTVSS
VL: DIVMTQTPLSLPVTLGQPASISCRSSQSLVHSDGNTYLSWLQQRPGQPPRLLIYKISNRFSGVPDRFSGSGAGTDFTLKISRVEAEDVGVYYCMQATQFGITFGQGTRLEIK
B4: 05H03 (antibody, IgG4, V domains shown)
VH: B2 VH
VL: DIVMTQSPLSLSVTPGEPASISCRSSQSLLHSNGYKYLDWYLQKPGQSPQLLIYMGSNRASGVPDRFSGSGSGTDFTLKISRVEAEDVGVYYCMQGLQSPLTFGGGTKVEIE
B5: 09A08 (antibody, IgG4, V domains shown)
VH: QVQLVQSGAAVKKPGESLKISCKGSGYTFSNYWIGWVRQMPGKGLEWMGIIYPGDSDTRYSPSFQGQVTISADKSISTAYLQWSSLKASDTAMYYCARHIVGPPKSAFDIWGQGTMVTVSS
VL: DIVMTQTPLSLPVTLGQPASISCSSSQGLQKRDGNTYLNWFQQRPGQSPRRLIYKVSNRDSGVPDRFSGSGSGTDFTLKISRVEAEDVGVYYCMQGTHWPWTFGQGTRVEIK
B6: 05D01 (antibody, V domains shown)
VH: QVTLRESGGALVQPGGSLRLSCAASGFPLRSNAMTWVRQAPGKGLEWVSDIRGNGASTYYADSVKGRFTISRDDSNNILFLQMNSLRAEDTAVYYCVGHGSSSYWGQGTLVTVSS
VL: DVVMTQSPLSLPVTLGQPASISCRSSQSLVYRDGNIYLNWFQQRPGQSPRRLIYKVSNRDSGVPDRFSGSGSGTDFTLKISRVEAEDVGVYYCMQLTHWPPGFAQGTKLEIK
B7: 07E07 (antibody, IgG4, V domains shown)
VH: QVQLQQSGAEVKKPGASVKVSCKASGYTFTSYYMHWVRQAPGQGLEWMGIINTSSGSTKYAQRFQDRVTVTRDTSTTTVYMELNSLRSEDTAVYYCARGGRAYSGSFDNWGQGTLVTVSS
VL: B6 VL with Y31H, I36T, L38F, L96A, P101R, G102T, A104G, L109V
B8: 05A11 (antibody, IgG4, V domains shown)
VH: EVKLLESGGGVVQPGRSLRLSCAASGFSFSAYGMHWVRQAPGKGLEWVSSISGSGDGTYYADSVKGRFTISRDNSKNTLYLQMNSLRAEDAAVYYCAKSVKGRGYFFDYWGQGTLVTVSS
VL: DIVLTQSPSSLSASVGDRVTITCRASQSISSYLNWYQQKPGKAPKLLIYAASSLQSGVPSRFSGSGSGTDFTLSISNLQPEDFATYYCQQAYKFPRSFGGGTKVEFK
B9: 05C02 (antibody, V domains shown)
VH: EVKLLESGGGVVQPGRSLRLSCAASGFTFKNFAMHWVRQAPGKGLEWVAVISYDGSSEDYADSVKGRFTLSRDNAKNSLYLQMNNLRAEDTAVYYCARGRRPDYWGQGTLVTVSS
VL: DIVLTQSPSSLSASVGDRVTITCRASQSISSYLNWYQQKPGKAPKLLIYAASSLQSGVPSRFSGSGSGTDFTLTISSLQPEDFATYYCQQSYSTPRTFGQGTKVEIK
B10: 09A02 (antibody, IgG4, V domains shown)
VH: EVQLVQSGGGLVKPGGSLRLSCAASGFTFRTAWMSWVRQAPGKGLEWVGRMKSKNDGGTTDYAAPVKGRFTISRDDSRDTVYLQMNSLKTEDTGVYYCATYAAGATVPWGQGTLVTVSS
VL: DIVMTQTPLSAPVTLGQPASISCRSSRSLLQRNGYNYVDWYQQKAGNPPRLLIYLGSRRASGVPDRFSGSGSDKDFTLKISRVEADDVGFYFCKQSLQAPPTFGGGTKIEIT
B11: 06A07 (antibody, IgG4, V domains shown)
VH: QVQLVQSGPELKNPGASVKVSCKASGYSFTNFYINWVRQAPGRGLEWVGWISPNNGNTHYARNLQGRVTMTTDTSTNTAYLELKNLRSDDTAIYFCGRSVSMGYWGQGTLVTVSS
VL: LPVLTQPPSVSKGLRQTATLTCTGNSKNVGNQGAAWLQQHQGQPPKLLSYRNNNRPSGISERFSASRSGNTASLTITGLQPEDEADYYCSAWDSSLSAQVFGGGTKLTVL
B12: 09C10 (antibody, V domains shown)
VH: EVKLLESGGGLIQPGGSLRLSCAASGFTVSNNYVTWVRQAPGKGLELVSSIYSGGGTYYADSVKGRFTISRDNSKNTVYLQMNSLRADDTAVYYCARNVPVTNFGYWGQGTLVTVSS
VL: B6 VL with V2I, I36T
B13: 05E08 (antibody, IgG4, V domains shown)
VH: EVQLVQSGGGVVQPGRSLRLSCAASGFTFSTYAMHWVRQAPGKGLEWVAVISYDGSNKYYADSVKGRFTISRDNSRNTLFLQMNSLRDEDTAVYYCAKRGTMIRGERSLDFWGQGTLVTVSS
VL: AIQMTQSPSFLSASVGDRVTITCRASQGINSWLAWYQQKPGTAPNLLIHAASTLQSGVPSRFSGSRSGTEFTLTISSLQPEDFATYYCQQLQSYPLTFGQGTRLEIK
B14: 06C04 (antibody, IgG4, V domains shown)
VH: EVQLVESGGGLVQPGGSLRLSCAASGFTFSDHYMDWVRQAPGKGLEWVGRSRNKVKSYTTAYAASVEGRITISRDDSKNSLYLEMNSLKTEDTAVYYCVRVRWGGAFDIWGQGTMVTVSS
VL: QPVLTQPPSASGSPGQSVTISCTGTSSDVGGYNYVSWYQQHPGKAPKLMIYEVSKRPSGVPDRFSGSKSGNTASLTVSGLQAEDEADYYCSSYAGSNNLRVFGGGTKLTVL

Biological target: T1, Sulfotyr fibrinogen γ peptide
Experiment: ELISA, 50 nM mAb
Experimental: Recombinant PSGL-1-hFc1 chimera protein consisting of PSGL-1's extracellular domain (ECD) served as a positive control. […] Primary antibody was added (25 ul per well) in duplicate at 50 nM in assay buffer (blocking buffer containing 0.05% Tween®20) into test and control (just blocked) wells and the plate incubated for 45 min at 37° C.

Question: How did the “binding normalized to PSGL-1” value turn out when B1 was run?
Answer: 1.33

Question: For B2, which “binding normalized to PSGL-1” value is on record?
Answer: 0.49

Question: How did the “binding normalized to PSGL-1” value turn out when B3 was run?
Answer: 0.26

Question: How did the “binding normalized to PSGL-1” value turn out when B4 was run?
Answer: 0.68

Question: How did the “binding normalized to PSGL-1” value turn out when B5 was run?
Answer: 0.14

Question: With B6 as the binder, how does the “binding normalized to PSGL-1” value read?
Answer: 0.89

Question: How did the “binding normalized to PSGL-1” value turn out when B7 was run?
Answer: 1.04

Question: B8 was tested. Which “binding normalized to PSGL-1” value did it give?
Answer: 0.87

Question: Which “binding normalized to PSGL-1” value does the source give for B9 here?
Answer: 0.42

Question: B10 was tested. Which “binding normalized to PSGL-1” value did it give?
Answer: 1.06

Question: Which “binding normalized to PSGL-1” value does the source give for B11 here?
Answer: 0.69

Question: With B12 as the binder, how does the “binding normalized to PSGL-1” value read?
Answer: 1.3

Question: With B13 as the binder, how does the “binding normalized to PSGL-1” value read?
Answer: 1.05

Question: With B14 as the binder, how does the “binding normalized to PSGL-1” value read?
Answer: 1.15

Biological target: T2, Scrambled Y42,52,63(SO3) PSGL-1(42-62) …
Experiment: ELISA, immobilized biotin peptide
In short: (§1)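 In this ELISA, half-well high binding plates (Corning Cat. #3690) received 3 ug/mL/25 ul per well of biotin-tagged PSGL-1 peptides covering residues 42 to 62, diluted in PBS, pH 7.4, and coated overnight at 4° C. Duplicate readings for each antibody were averaged and the average assay background was subtracted. PSGL-1 protein or peptide was the positive control.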

Question: Which results are given for B1?
Answer: A450nm, 20 nM mAb: 0.03 A450nm; binding result: no binding (tested: 20 nM)

Question: For B2, which “A450nm, 20 nM mAb” value is on record?
Answer: 0.05 A450nm

Question: Does B2 bind?
Answer: no binding (tested: 20 nM)

Question: Does B3 bind?
Answer: no binding (tested: 20 nM)

Question: Which results are given for B4?
Answer: A450nm, 20 nM mAb: 0.04 A450nm; binding result: no binding (tested: 20 nM)

Question: Does B5 bind?
Answer: no binding (tested: 20 nM)

Question: Which results are given for B6?
Answer: A450nm, 20 nM mAb: 0.01 A450nm; binding result: no binding (tested: 20 nM)

Question: What does the source list for B7?
Answer: A450nm, 20 nM mAb: 0.01 A450nm; binding result: no binding (tested: 20 nM)

Question: Does B8 bind?
Answer: no binding (tested: 20 nM)

Question: Does B9 bind?
Answer: no binding (tested: 20 nM)

Question: Which “A450nm, 20 nM mAb” value does the source give for B10 here?
Answer: 0.03 A450nm

Question: Does B10 bind?
Answer: no binding (tested: 20 nM)

Question: For B11, which “A450nm, 20 nM mAb” value is on record?
Answer: 0.02 A450nm

Question: Does B11 bind?
Answer: no binding (tested: 20 nM)

Question: Which “A450nm, 20 nM mAb” value does the source give for B12 here?
Answer: 0.21 A450nm

Question: Which results are given for B13?
Answer: A450nm, 20 nM mAb: 0.01 A450nm; binding result: no binding (tested: 20 nM)

Question: Does B14 bind?
Answer: no binding (tested: 20 nM)

Biological target: T3, Biotin Y46,48,51(SO3) PSGL-1(42-62) …
Experiment: ELISA, immobilized biotin peptide
In short: as §1

Question: With B1 as the binder, how does the “A450nm, 20 nM mAb” value read?
Answer: 2.54 A450nm

Question: What about the EC50 of the same binder?
Answer: 0.08 nM

Question: What does the source list for B2?
Answer: A450nm, 20 nM mAb: 2.63 A450nm; EC50: 0.07 nM

Question: What does the source list for B3?
Answer: A450nm, 20 nM mAb: 2.52 A450nm; EC50: 0.65 nM

Question: With B4 as the binder, how does the “A450nm, 20 nM mAb” value read?
Answer: 2.77 A450nm

Question: What about the EC50 of the same binder?
Answer: ~0.02 nM

Question: With B5 as the binder, how does the “A450nm, 20 nM mAb” value read?
Answer: 2.43 A450nm

Question: What about the EC50 of the same binder?
Answer: 0.1 nM

Question: For B6, which “A450nm, 20 nM mAb” value is on record?
Answer: 2.85 A450nm

Question: What does the source list for B7?
Answer: A450nm, 20 nM mAb: 2.77 A450nm; EC50: 0.15 nM

Question: What does the source list for B8?
Answer: A450nm, 20 nM mAb: 2.52 A450nm; EC50: ~0.025 nM

Question: What does the source list for B9?
Answer: A450nm, 20 nM mAb: 2.8 A450nm; EC50: ~0.01 nM

Question: What does the source list for B10?
Answer: A450nm, 20 nM mAb: 2.82 A450nm; EC50: 0.51 nM

Question: Which results are given for B11?
Answer: A450nm, 20 nM mAb: 2.7 A450nm; EC50: ~0.02 nM

Question: Which “A450nm, 20 nM mAb” value does the source give for B12 here?
Answer: 2.77 A450nm

Question: How did the “A450nm, 20 nM mAb” value turn out when B13 was run?
Answer: 2.57 A450nm

Question: And the EC50?
Answer: ~0.01 nM

Question: How did the “A450nm, 20 nM mAb” value turn out when B14 was run?
Answer: 2.64 A450nm

Biological target: T4, Biotin PSGL-1(42-62) peptide, unmodified
Experiment: ELISA, immobilized biotin peptide
In short: as §1

Question: How did the EC50 turn out when B1 was run?
Answer: > 500 nM

Question: With B2 as the binder, how does the EC50 read?
Answer: ~0.05 nM

Question: With B3 as the binder, how does the EC50 read?
Answer: 0.51 nM

Question: With B4 as the binder, how does the EC50 read?
Answer: ~0.02 nM

Question: Which EC50 does the source give for B5 here?
Answer: > 500 nM

Question: Which “A450nm, 20 nM mAb” value does the source give for B6 here?
Answer: 1.33 A450nm

Question: B7 was tested. Which EC50 did it give?
Answer: > 500 nM

Question: B8 was tested. Which EC50 did it give?
Answer: ~500 nM

Question: With B9 as the binder, how does the EC50 read?
Answer: 3 nM

Question: Which EC50 does the source give for B10 here?
Answer: ~500 nM

Question: For B11, which EC50 is on record?
Answer: 7.2 nM

Question: Which “A450nm, 20 nM mAb” value does the source give for B12 here?
Answer: 0.2 A450nm

Question: With B13 as the binder, how does the EC50 read?
Answer: > 500 nM

Question: B14 was tested. Which “A450nm, 20 nM mAb” value did it give?
Answer: 0.07 A450nm
